Residue numbers refer to the chain shown, from its start.
B1: PAI-2 deletion variant Δ74-96 (as expressed from pBTA829) (other)
chain: MEDLCVANTLFALNLFKHLAKASPTQNLFLSPWSISSTMAMVYMGSRGSTEDQMAKVLQFNEVGANAVTPMTPAQAADKIHSSFRSLSSAINASTGNYLLESVNKLFGEKSASFREEYIRLCQKYYSSEPQAVDFLECAEEARKKINSWVKTQTKGKIPNLLPEGSVDGDTRMVLVNAVYFKGKWKTPFEKKLNGLYPFRVNSAQRTPVQMMYLREKLNIGYIEDLKAQILELPYAGDVSMFLLLPDEIADVSTGLELLESEITYDKLNKWTSKDKMAEDEVEVYIPQFKLEEHYELRSILRSMGMEDAFNKGRANFSGMSERNDLFLSEVFHQAMVDVNEEGTEAAAGTGGVMTGRTGHGGPQFVADHPFLFLIMHKITNCILFFGRFSSP
B2: native PAI-2 (as expressed from pBTA641) (other)
chain: MEDLCVANTLFALNLFKHLAKASPTQNLFLSPWSISSTMAMVYMGSRGSTEDQMAKVLQFNEVGANAVTPMTPENFTSCGFMQQIQKGSYPDAILQAQAADKIHSSFRSLSSAINASTGNYLLESVNKLFGEKSASFREEYIRLCQKYYSSEPQAVDFLECAEEARKKINSWVKTQTKGKIPNLLPEGSVDGDTRMVLVNAVYFKGKWKTPFEKKLNGLYPFRVNSAQRTPVQMMYLREKLNIGYIEDLKAQILELPYAGDVSMFLLLPDEIADVSTGLELLESEITYDKLNKWTSKDKMAEDEVEVYIPQFKLEEHYELRSILRSMGMEDAFNKGRANFSGMSERNDLFLSEVFHQAMVDVNEEGTEAAAGTGGVMTGRTGHGGPQFVADHPFLFLIMHKITNCILFFGRFSSP
B3: second form of native PAI-2 (alternative native PAI-2, expressed from pBTA 683) (other)
chain: B2 chain with N120D, N404K, S413C

Columns and labels:
Assay in all cases: incubation of the purified proteins; SDS-PAGE and western blot with anti-PAI-2
u-PA (Behring) = u-PA (Behring) (Homo sapiens (Human), UniProt P00749)
[1] = target: two chain t-PA (American Diagnostica) (Homo sapiens (Human), UniProt P00750)
[2] = target: single chain t-PA (American Diagnostica) (Homo sapiens (Human), UniProt P00750)

Row | Binder | binding result (u-PA (Behring)) | binding result [1] | binding result [2]
1 | B1 | binds | binds | binds
2 | B2 | – | binds | binds
3 | B3 | – | binds | binds
